Experimental data published in the supplement of paper PMC9732359.
± gives the uncertainty stated by the source.

Assay: protein stability index of a GFP-peptide fusion (yeast GPS) (PSI 1-4); higher = more stable; sorted into four equal gates, so the index is relative within each strain
How it was run: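 Mid-log yeast cultures in leucine-free medium, carrying a pooled plasmid library, were sorted into four equal gates by their GFP/Cherry fluorescence ratio. Each plasmid expressed Cherry along with GFP fused upstream of a tiled 17-residue yeast protein peptide. Plasmids recovered from each gate were PCR-amplified and Illumina-sequenced, with reads assigned to strains by barcodes. The protein stability index was obtained by summing each gate's read frequency weighted by its gate number.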

Sequence	protein stability index (doa10∆)	protein stability index (pdr5∆)	protein stability index (san1∆)	protein stability index (ubr1∆)
ELWRKEQKLQTVLETLL [SMC3]	2.9 ± 0.13	3.42 ± 0.11	2.7 ± 0.17	3.31 ± 0.064
YLNGTLIGSIRFPTKFV [RET1]	2.04 ± 0.075	1.6 ± 0.053	1.64 ± 0.088	1.56 ± 0.044
IVVATEHNPSAHTASVG [COR1]	2.7 ± 0.07	2.46 ± 0.088	2.27 ± 0.06	1.77 ± 0.037
IILGTNLYDGAEHKYMP [BRR2]	3.06 ± 0.12	3.47 ± 0.096	3.6 ± 0.087	3.27 ± 0.1
YIYLSHETLARSSEEIN [RPN3]	3.15 ± 0.26			3.15 ± 0.18
LMRSCFYLMVSSLSFGP [YJL039C/NUP192]	1.64 ± 0.04	1.48 ± 0.04	1.76 ± 0.075	1.19 ± 0.033
SRPASYGYFSVGKRVPI [SIR4]	2.31 ± 0.19	2.14 ± 0.11	2.15 ± 0.13	
NDSETHTEDESTKELKF [BRN1]	3.2 ± 0.17	3.13 ± 0.13	3.17 ± 0.094	3.19 ± 0.068
IIFASTKLGFTFTIKEF [SNU114]	2.37 ± 0.078	2.44 ± 0.059	1.83 ± 0.074	2.56 ± 0.066
IGNLITRQFEGRSNEIV [PRP8]	3.05 ± 0.075	3.29 ± 0.087	3 ± 0.058	2.7 ± 0.074
PLLYNSLCTVWKPNPSY [SRB5]	1.99 ± 0.11	1.68 ± 0.062	2.21 ± 0.11	2.13 ± 0.1
INQYQLLYNLKNDILTN [SWI1]	1.63 ± 0.038	1.33 ± 0.049	1.28 ± 0.1	1.18 ± 0.036
LFSSRRLQAKRLKDVEW [RMP1]	2.62 ± 0.084	2.79 ± 0.059	3.1 ± 0.079	1.68 ± 0.065
HHWLLDKLSGCYAPRPS [RPS4A]	2.21 ± 0.063	1.94 ± 0.062	1.89 ± 0.083	1.42 ± 0.045
SGTFYRYNAKAIGSGSE [PUP2]	3.15 ± 0.088	3.14 ± 0.09	3.37 ± 0.06	2.98 ± 0.073
NRKIYQFTLYDRELNEV [SMC3]		2.62 ± 0.11	2.76 ± 0.13	2.98 ± 0.095
NMMNQVGEEETSQKMKK [SRP54]	3.33 ± 0.11	3.39 ± 0.12	3.33 ± 0.076	3.23 ± 0.079
AHTPMLQMYSKIRRHPN [FAS1]	2.81 ± 0.051	3.03 ± 0.063	2.96 ± 0.06	2.95 ± 0.048
RASIEYYVGQVMRNNES [DIS3]	3.22 ± 0.067	3.21 ± 0.091	3.21 ± 0.053	3.26 ± 0.063
LGNIASSFYINHASMDV [BRR2]	2.84 ± 0.12	2.67 ± 0.12	2.88 ± 0.1	3.27 ± 0.15
NIELHSLYTSREPRVVS [PUP1]	2.56 ± 0.1	3.1 ± 0.068	3.22 ± 0.09	3.07 ± 0.078
EQSLEVFIFPTSNWEIY [SRB8]	2.47 ± 0.067	2.2 ± 0.048	2.57 ± 0.044	2.52 ± 0.033
GELVLDIEVPDVNALKF [SNF12]	3.06 ± 0.22	3.55 ± 0.12	2.77 ± 0.077	3.15 ± 0.11
AIVVGWRAIIKAIFPNT [FAS1]	2.44 ± 0.1	2.71 ± 0.14	2.41 ± 0.086	2.33 ± 0.15
DFLRYINIKYLRLDGHT [SNF2]	2.5 ± 0.071	1.32 ± 0.062	1.4 ± 0.14	1.65 ± 0.06
HLIKCFFKITLQRASSK [ITC1]	1.38 ± 0.073	1.19 ± 0.047	1.18 ± 0.12	1.08 ± 0.051
ERNASEVRDATLNNIFR [GRR1]	3.36 ± 0.17		3.41 ± 0.19	3.53 ± 0.16
